Experiments:
[1] = biological target: Human bufavirus 1 (BuV1) VP2, assembled as virus-like particles (human bufavirus 1); test: cryo-EM structure; purified BuV1 VP2 VLPs dialyzed to pH 4.0 in universal buffer (20 mM HEPES, 20 mM MES, 20 mM sodium acetate, 150 mM NaCl); icosahedral reconstruction
[2] = biological target: Human bufavirus 1 (BuV1) VP2, assembled as virus-like particles (human bufavirus 1); test: cryo-EM structure; purified BuV1 VP2 VLPs dialyzed to pH 7.4 in universal buffer (20 mM HEPES, 20 mM MES, 20 mM sodium acetate, 150 mM NaCl); icosahedral reconstruction
[3] = biological target: Human bufavirus 1 (BuV1) VP2, assembled as virus-like particles (human bufavirus 1); test: cryo-EM structure; purified BuV1 VP2 VLPs dialyzed to pH 2.6 in 50 mM glycine HCl, 150 mM NaCl; icosahedral reconstruction; full and half (broken) capsids seen in micrographs
[4] = biological target: Human bufavirus 1 (BuV1) VP2, assembled as virus-like particles (human bufavirus 1); test: cryo-EM structure; purified BuV1 VP2 VLPs co-incubated with 6SLN (or 3SLN) glycan in 10-fold molar excess of the potential binding sites; icosahedral reconstruction, 60-mer model

Measured: stoichiometry N

Human bufavirus 1 (BuV1) VP2, assembled as virus-like particles (natural protein)
60: all assays above

— PMC11360561
